Laboratory results from the nanobody polyreactivity screen of Harvey et al. (2022).

Test: yeast display, Sf9 membrane polyspecificity reagent, FACS + sequencing; frameworks hold sequencing errors
Summary of the method: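 Galactose-induced (36–48 hours) yeast carrying a synthetic nanobody display library were exposed to 10% biotinylated, detergent-solubilized Sf9 membrane reagent at 4 °C for 1 hour. FACS followed streptavidin microbead enrichment, using low and high (top ~1%) gates for expression (anti-HA) and reagent binding (streptavidin). Colony PCR, MiSeq 2 × 250 sequencing and CDR-length filtering followed. Labels for polyreactivity reflect the gate of origin.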

Sequence	polyreactivity (PSR sort gate)
QVQLVESGGGLVQAGGSLRLSSAATGSTSYNDMGWYRQATGKQRELGASITSSGDDTYYADSVKGRFTISRDNAKNTVYLQMNSLKPEDNAVYYCAAEDYHRHVGSYYVIDYDYWGQGTQVTVSS	low polyreactivity
QVQLVESGGGLVQAGGSLRLSCAASGLIFYDNMGWYRQAPGKERELVAAISSSGGSTSYAYSVKGRFSISRDNAKYTVYLQMISLKREDTAVYYCAADSYRAYLGFVGFDYWGQGTQVTVSS	low polyreactivity
QVQLVESGGGLVQAGGSLRLSCAASGGTFRVYAMGWYRKAPGKERELVAAITGRGGSTYYADSVKGRFTISRDNAKNTVYLQMNSLKPEDTAVYDCAKDPVTTYYKYDYWGQGTQVTVSS	low polyreactivity
QVQLVESGGGLVQAGGSLRLSCAAYGSIFCIFAMGWYRQAPGKEWELVAAISSDGSTKYADSVKGRFTISRDNAKNTVYFQMNSLKPEDTAVYYCAKLKYVRIGGPKQSMALDYWGQGTQVTVSS	low polyreactivity
QVQLVESGGGLVQAGGSLRLSCAASGRIFIRYAMGWYRQAPGKERELVASISRNGGTTYYADSVKGRFTISRDNAQNTVYLQMNSLKPEDTAVYYCNTVHRSVDKAGYDYWGQGTQVTVSS	high polyreactivity
QVQLVESVGGLVQAGGRLRLSCAASAFIFTSYAMGLYRQAPGKDRELVAAISKRGGSTYYADSVKGRFTISRDYAKNTDYLQMHSLKPEDTAVYYCATRYPQPYSPGYSYDYWGQGTQVTVSS	high polyreactivity
QVQLVESGGGLVQAGGSLRLSCAASGRTFDRNAMGWYRKAPGKERELVARITIDGSTNYADSVKGRFTISRDNAKNTVYLQMNSLKPEDTGVYYCAAYSASYGGYDYWGQGTQVTVSS	high polyreactivity
QVQLVESGGGLDQARGSLRLSCPASGFIFTDYAMGWYRQAPGKERELVAGISGSGGRTYYADSVKGRFTISRDNAKNTVYLQMNSLKPEDTAVYYCAARGVPWLWYFRGMYWGQGTQVTVSS	high polyreactivity
QVQLVESGGGLVQAGGSLRLSCAASGFTFGSNAMGWYRQAPGKERELVAAISYSGTRTYYADSVKGRFTISRDNAKNTVYLQMNRLKPEDTAVYYCAAGFRKTQFNVRYYYWGHGTQVTVSS	high polyreactivity
QVQLVESGGALVQAGGSLRLSCAASGRTFYNYAMGWYRQAPGKEREFVASITTSGGSTYYADSVKGRFTISRDNAKNTVYLQMNSLIPEDTAVYYCARRAYRSWTRNSYEYYYWGQGTQVTVSS	high polyreactivity
QVQLVESGGGLVQAGGSLRLSCDASGFIIARNAMGWYRQAPGKERELVAAISASGGRTYYADSVKGRFTISRDNAKNTVYLQMNSLKPEDTAVYYCAARRDGRSGSYNYWGQGTQVTVSS	high polyreactivity
QVQLVESVGGLVQAGGSLRLSCADSGSTFYFNAMGWYRQAPGKEREFVAAIEWSGGSTYYADSVKGRFTISRDNAKNTVYLQMNSLKPEDTAVYYCAAPYHYYGNSVGYADYDYWGQGTQVTVSS	low polyreactivity
QVQLVESGGGLVQAGGSLRLSCAASGFIIVYYAMGWYRQAPGKERELVAAISRSGGSTYYADSVKGRFTISRDNAKNTVYLQMNSLKPEDTAVYYCNAVNVLAPSRGRRYDYWGEGTQVTVSS	high polyreactivity
QVQLVESGGGLVQAGGSLRLSCAASGSIFDDNAMGWYRPAPGKERELVATINYGGGRTSYADSVKGRSTISRDNAKNTVYLQMNSLKPEDTAVYYCAADPRQKEDYWGQGTQVTVSS	low polyreactivity
QVQLVESGGGLVQAGGSLRLSCAASGFIFRGYAMGWYRQAPGKERELVAAISRRGGSTYYADSVKGRFTISRDNAKNTVYLHMNSLKPEDTAVYYCNAETTPQGNVRDGYWGQGTQVTVSS	high polyreactivity
QVQLVESGGGLVQAGGSLRLSCAASGRTFNIYAMGWYRQAPGKERELVAAISSGGSTYYADSVKGRFTISRDNAKNTVYLQMNSLKPEDTAVYYCAAVEFELRGDYWGQGTQVTVSS	low polyreactivity
QVQLVESGGGLDQAGVSLRLSCAASGSTFRIYAMGWYRPAPGKERELVAAISRSGGSTYYADSVKGRFTISRDNAKNTVYLQMNSLKPEDTAVYYCAALSVASRWFGRGTGGYWGQGTQVTVSS	high polyreactivity
QVQLVESRGGLVQAGGSLRLSCAASGRIFYGYAMGGYRQAPGKERELVAGISKRGGTTRYADSVKGRFTISRDNAKNTVYLQMNSLKPEETAVSSCAAESFGLYASPGEEYWGQGTQVTVSS	high polyreactivity
QVQLVESGGGLVQAGGSLRLSCAASGFTFWYYAMGCYRQAPGKERELVPSISSIGGSTYYADSVKGRFTISRDNAKYTVYLQMNSLKPEDTAVYYCAARYKFLRGGVRRDYLGQGTQVTVSS	high polyreactivity
QVQLVESGGGLVQAGGSLRLSCAASGRIFDRNAMGWYRQAPGKERELVARISRTGGSTYYADSVKGRFTISRDNAKNTVYLQMNSLKPEDTAVYYCAASRGGGYDYWGQGTQVTVSS	high polyreactivity
QVQLVESGGGLVQAGGSLRLSCAASGRTFWNYAMGWYRQAPGKERELVAAIRSSGGRTYYADSVKGRFTISRDNAKNTVYLQMNSLKPEDTAVYYCAAYGFIEGIGTYDYWGQGTQVTVSS	high polyreactivity
QVQLVESGGGLVQAGGSLRLSCAASGSICGPYALGWYRQAPGKERELVAAITWTGGRTYYADSVKGRFTISRDNAKNTVYFQMNSLKPEDTAVYYCAADYSPSTWYLYYTLYYYWGQGTQVTVSS	low polyreactivity

Sequence	polyreactivity (PSR sort gate)
QVQLVESGGGLVQAGGSLRLSCAASGFTFSWYAMGWYRQAPGKERELVAAITSGGSTYYADSVKGRFTLSRDNAKNTVYLQMISLKPEDTAVYYCNKAFASIAPVWSGYDFWGQGTQVTVSS	low polyreactivity
QVQLQESGGGLVQAGGSLRLTCAASGSISRLDYMGWYRQASGKERELVAAIDNGSTTYYADSVKGRLTISRDNAKYTVYLQMNSLKPEDTAVYFCAAVRGRGGTHAYWGQGTQVTVSG	low polyreactivity
QVQLVESGGGLVQAGGSLPLSCAASGSIFLYNAMGWYRQAPGKERELVAGITFIGGSTYYADSVKGRFTISRDNAKNSVYLQMNSLKPEDTAVYYCNRLGVYWVGTEFDYWGQGTQVTLSS	low polyreactivity
QVQLVESGGGLVQAGGSLRLSCAASGRIFTDYTMGWYRHAPGKERELDAAISKGGSGTYYADSVKGRFTISRDNAKNTVYLQMNSLKPEDTAVYYCNKVISTGEYDYWGQGTQVTVSS	low polyreactivity
QVQLQESGGGLVQAGGSLRLSCAASGNIFGTKSMGWYRQAPGKGREFVAAINDGGSTNYADSVKGRFTIGRDNAKNTVYLQMNSLKPEDTAVYYCAAQWVRSDYHTYWGQGTQVTVSS	high polyreactivity
QVQLVESGGGLVQAGGSLRLRCASSGRTFQYYAMGWYRQAPGKEMELVAAISWSGGSTYYADSVKGRFTISRDNAKNTVYLQMNSLKPEDTAVYYCAAVVGRNGTRSYGYWGQGTQVTVSS	high polyreactivity
QVQLVESGGGLVQAGGSLRLSCAASGSIFLDNAMGWYRQAPGKERELVAAISRRGGTTYYADSVKGRFTISRDNAKNTVYLQMNSLKPEDTAVYYCAARYPGGKYYSYTYNYWGQGTQVTVSS	high polyreactivity
QVQLVESGGGLVQAGGSLRLSCAASGITFYRYAMGWYRQAPGKEREFVAAITWGSTYYADSVKGRFTISRDNAKNTVYLQMNSLKPEDTAVYYCNKKGYTVGATVGYWGQGTQVTVSS	low polyreactivity
QVQLVESGGGLVKSGGSLRLSCAASGRIFYLYAMGWYRQAPGKERELVAAISRRGGGTSYADSVKGRFTISRDNAKNTVYFQMNSLKPEDTAVYYCNTAYSLGGYWGQGTQVTVSS	high polyreactivity
QVQLVESGGGLVQAGGSLRLSCAASGRTFYWYGMGWYRQAPGKERELVATISRGSRTYYADSVKGRFTISRDNAKNTVYLQMNSLKPEDTAVYYCNADTWPGEYNGYFSGAYDYWGQGTQVTVSS	high polyreactivity
QVQLVESGGGLVQAGGSLRLSCAASGSTSVQYAMGWYRQAPGKERELVAAIDRSGGSTSYADSVKGRFTISRYNAKNTVYLQMNSLKPEDTAVYYCNADPVRSTYSYDYWGQGTQVTVSS	low polyreactivity
QVQLVESGGGLVQAGGSLRLSCAASGLTFHRYAMGWYRQAPGKERELVADISSGDSTNYADSVKGRFTISRDNAKNTVYLQMNSLKPEDTAVYYCNTDGYIYRYRFDYWGQGTQVTVSS	low polyreactivity
QVPLVESGGGLVQAGGSLRLSCAASGFIFYANAMGWYRQAPGKERELVAAISWDGGRTYYADSVKGRFTISRDNAKNTVYLQMNSLKPDDTAVYSCNALATDLDYWGQGTQVTVSS	low polyreactivity
QVQLVESGGGLVQAGGSLRLSCAASGSIFYPYAMGWYRQAPGKERELVAAIRFSGGRTYYADSVKGRFTISRDNAKNTVYLQMNSLKPEDTAVYYCAAEYYGIYSPYDYWGQGTQVTVSS	high polyreactivity
QVQLVESGGGLVQAGGSLRLSCAASGSIFNTYAMGWYRQAPGKERELVAAISRSGDSTYYADSVKGRFTISRDNAKNTVYLQMNSLKPEDSAVYYCATGRTDHGYYYWGQGTQVTVSS	high polyreactivity
QVQLVESGGGLVHAGGSLRLSCAASGRTFYPNVMGWYRQAPGKERELVAAIRARGGSTYYADSVKGRFTISRDNAKNTVYLQMNSLKPEDTAVYYCARDTGDYLQFDYWGQGTQVTVSS	high polyreactivity
QVQLVESGGGLVQAGGSLRLSCAASGFTFEIYAMGWYRQAPGKEREFVASISWSVGSTYYADSVKGRFTISRDNAKNTVYLQMNSLKPEDTAVYYCNADWRHKYYHSYLYDYWGQGTQVTVSS	low polyreactivity
QVQLVESGGGLVQAGGSLRLSCAASGSTFVPYVMGWYRQAPGKERELVAAISKSGTSTYYADSVKGRFTISRDNAKNTVYLQMNCLKPEDTAVYYCAAVARRQVPYDYWGQGTQVTVSS	high polyreactivity
QVQLVESWGGLVQAGGSLRLSCAASGRIFGYYAMGWSRQAPGKERELVAVISSGGSTYADSVKGRFTISRDNAKNTVYLQMNSLKPEDTAFYYCAARNYWSSYRTYRSRYDYWGQGTQVTVSS	high polyreactivity
QVQLVESGGGLVQAGGSLRLSSAASGFIFRTYAMGRYRQAHGKESQLVAAISGTTGSKYYADSVKGRFTISRDNAKNTVYLQMNSLKPEDTAVYYCAADFYWYIRYDYWGQGTQVTVSS	low polyreactivity
QVQLVESVGGLVQAGGSLRLSCSASGSIFWYNAMGWYRQAPGKERELVAAISRGGSTKYADSVKGRFTISRDNAKNTVYLQMNSLKPEDTAVYYCAARYYRSSQGWTYDYWGKGTQVTVSS	low polyreactivity
